Laboratory results from patent US10704030B2, “P450-BM3 variants with improved activity” (Codexis, Inc., priority 2015, dated 2020).

Legend:
Assay type in all cases: biochemical
[1] = Validation of generalist properties: oxidation of diclofenac by lyophilized P450-BM3 variant, UPLC-MS; details: [Diclofenac] = 1 mM; for TON: TON = [substrate]*% conversion/[P450]; for FIOPC (D06): fold improvement over parent MCYP-P1.2-D06
Procedure, shortened: (§1)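 Lyophilized lysate of E. coli-expressed P450-BM3 variant (stock standardized to 12 μM heme) was incubated 24 h at 30 °C with 1 or 2 mM substrate, 1.0 mM NADP+, 25 mM glucose, 0.5 mg/mL glucose dehydrogenase and 5% DMSO in 100 mM potassium phosphate. Acetonitrile-quenched samples were analyzed by UPLC-MS (positive ESI).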

[2] = Validation of generalist properties: oxidation of loratadine by lyophilized P450-BM3 variant, UPLC-MS; details: [Loratadine] = 1 mM; for TON: TON = [substrate]*% conversion/[P450]; for FIOPC (D06): fold improvement over parent MCYP-P1.2-D06
Procedure, shortened: as §1

[3] = Validation of generalist properties: oxidation of imatinib by lyophilized P450-BM3 variant, UPLC-MS; details: [Imatinib] = 1 mM; for TON: TON = [substrate]*% conversion/[P450]; for FIOPC (D06): fold improvement over parent MCYP-P1.2-D06
Procedure, shortened: as §1

[4] = Validation of generalist properties: oxidation of gefitinib by lyophilized P450-BM3 variant, UPLC-MS; details: [Gefitinib] = 1 mM; for TON: TON = [substrate]*% conversion/[P450]; for FIOPC (D06): fold improvement over parent MCYP-P1.2-D06
Procedure, shortened: as §1

Molecule | % Conv. [1] | TON [1] | % Conv. [2] | TON [2] | % Conv. [3] | TON [3] | % Conv. [4] | TON [4] | FIOPC (D06) [1] | FIOPC (D06) [2] | FIOPC (D06) [3] | FIOPC (D06) [4]
SEQ ID NO: 12: P450-BM3 parental backbone from the commercially available MCYP panel (MCYP-0343; Codexis) (protein, P450_BM3) MTIKEMPQPKTFGELKNLPLLNTDKPVQALMKIADELGEIFKFEAPGCVTRYLSSQRLIKEACDESRFDKNLSQALKFSRDFAGDGLFTSWTHEINWKKAHNILLPSFSQQAMKGYHAMMVDIAVQLVQKWERLNADEHIEVSEDMTRLTLDTIGLCGFNYRFNSFYRDQPHPFIISMVRALDEVMNKLQRANPDDPAYDENKRQCQEDIKVMNDLVDKIIADRKARGEQSDDLLTQMLNGKDPETGEPLDDGNISYQIITFLIAGHETTSGLLSFALYFLVKNPHVLQKVAEEAARVLVDPVPSYKQVKQLKYVGMVLNEALRLWPTAPAFSLYAKEDTVLGGEYPLEKGDEVMVLIPQLHRDKTIWGDDVEEFRPERFENPSAIPQHAFKPFGNGQRACIGQQFALHEATLVLGMMLKHFDFEDHTNYELDIKETLTLKPEGFVVKAKSKKIPLGGIPSPSTEQSAKKVRKKAENAHNTPLLVLYGSNMGTAEGTARDLADIAMSKGFAPQVATLDSHAGNLPREGAVLIVTASYNGHPPDNAKQFVDWLDQASADEVKGVRYSVFGCGDKNWATTYQKVPAFIDETLAAKGAENIADRGEADASDDFEGTYEEWREHMWSDVAAYFNLDIENSEDNKSTLSLQFVDSAADMPLAKMHGAFSTNVVASKELQQPGSARSTRHLEIELPKEASYQEGDHLGVIPRNYEGIVNRVTARFGLDASQQIRLEAEEEKLAHLPLAKTVSVEELLQYVELQDPVTRTQLRAMAAKTVCPPHKVELEALLEKQAYKEQVLAKRLTMLELLEKYPACEMKFSEFIALLPSIRPRYYSISSSPRVDEKQASITVSVVSGEAWSGYGEYKGIASNYLAELQEGDTITCFISTPQSEFTLPKDPETPLIMVGPGTGVAPFRGFVQARKQLKEQGQSLGEAHLYFGCRSPHEDYLYQEELENAQSEGIITLHTAFSRMPNQPKTYVQHVMEQDGKKLIELLDQGAHFYICGDGSQMAPAVEATLMKSYADVHQVSEADARLWLQQLEEKGRYAKDVWAG | + (0-5.00) | ‡‡ (1001-5000) | + (0-5.00) | ‡‡ (1001-5000) | ++ (5.01-10.00) | ‡‡ (1001-5000) | + (0-5.00) | ‡ (0-1000) |  |  |  | 
Variant 12: P450-BM3 variant of SEQ ID NO: 12: K32R; C48S; Y52F; I95P; Q111R; G115R; D232H; M491A; T577A; A627S; D722S (protein, P450_BM3, C48S; Y52F; I95P; Q111R; G115R; D232H; M491A; T577A; A627S; D722S) MTIKEMPQPKTFGELKNLPLLNTDKPVQALMRIADELGEIFKFEAPGSVTRFLSSQRLIKEACDESRFDKNLSQALKFSRDFAGDGLFTSWTHEPNWKKAHNILLPSFSQRAMKRYHAMMVDIAVQLVQKWERLNADEHIEVSEDMTRLTLDTIGLCGFNYRFNSFYRDQPHPFIISMVRALDEVMNKLQRANPDDPAYDENKRQCQEDIKVMNDLVDKIIADRKARGEQSHDLLTQMLNGKDPETGEPLDDGNISYQIITFLIAGHETTSGLLSFALYFLVKNPHVLQKVAEEAARVLVDPVPSYKQVKQLKYVGMVLNEALRLWPTAPAFSLYAKEDTVLGGEYPLEKGDEVMVLIPQLHRDKTIWGDDVEEFRPERFENPSAIPQHAFKPFGNGQRACIGQQFALHEATLVLGMMLKHFDFEDHTNYELDIKETLTLKPEGFVVKAKSKKIPLGGIPSPSTEQSAKKVRKKAENAHNTPLLVLYGSNAGTAEGTARDLADIAMSKGFAPQVATLDSHAGNLPREGAVLIVTASYNGHPPDNAKQFVDWLDQASADEVKGVRYSVFGCGDKNWAATYQKVPAFIDETLAAKGAENIADRGEADASDDFEGTYEEWREHMWSDVASYFNLDIENSEDNKSTLSLQFVDSAADMPLAKMHGAFSTNVVASKELQQPGSARSTRHLEIELPKEASYQEGDHLGVIPRNYEGIVNRVTARFGLSASQQIRLEAEEEKLAHLPLAKTVSVEELLQYVELQDPVTRTQLRAMAAKTVCPPHKVELEALLEKQAYKEQVLAKRLTMLELLEKYPACEMKFSEFIALLPSIRPRYYSISSSPRVDEKQASITVSVVSGEAWSGYGEYKGIASNYLAELQEGDTITCFISTPQSEFTLPKDPETPLIMVGPGTGVAPFRGFVQARKQLKEQGQSLGEAHLYFGCRSPHEDYLYQEELENAQSEGIITLHTAFSRMPNQPKTYVQHVMEQDGKKLIELLDQGAHFYICGDGSQMAPAVEATLMKSYADVHQVSEADARLWLQQLEEKGRYAKDVWAG | +++ (10.01-15.00) | ‡‡‡ (5001-10000) | ++ (5.01-10.00) | ‡‡ (1001-5000) | ++++ (15.01-20.00) | ‡‡‡‡ (10000-50000) | + (0-5.00) | ‡ (0-1000) | ** (3.01-5.0) | * (0.0-3.0) | *** (5.01-10.0) | * (0.0-3.0)
Variant 13: P450-BM3 variant of SEQ ID NO: 12: K32R; C48S; Y52F; I95P; G115R; D232H; M491A; N574T; T577A; E619D; A627S; D722S (protein, P450_BM3, C48S; Y52F; I95P; G115R; D232H; M491A; N574T; T577A; E619D; A627S; D722S) MTIKEMPQPKTFGELKNLPLLNTDKPVQALMRIADELGEIFKFEAPGSVTRFLSSQRLIKEACDESRFDKNLSQALKFSRDFAGDGLFTSWTHEPNWKKAHNILLPSFSQQAMKRYHAMMVDIAVQLVQKWERLNADEHIEVSEDMTRLTLDTIGLCGFNYRFNSFYRDQPHPFIISMVRALDEVMNKLQRANPDDPAYDENKRQCQEDIKVMNDLVDKIIADRKARGEQSHDLLTQMLNGKDPETGEPLDDGNISYQIITFLIAGHETTSGLLSFALYFLVKNPHVLQKVAEEAARVLVDPVPSYKQVKQLKYVGMVLNEALRLWPTAPAFSLYAKEDTVLGGEYPLEKGDEVMVLIPQLHRDKTIWGDDVEEFRPERFENPSAIPQHAFKPFGNGQRACIGQQFALHEATLVLGMMLKHFDFEDHTNYELDIKETLTLKPEGFVVKAKSKKIPLGGIPSPSTEQSAKKVRKKAENAHNTPLLVLYGSNAGTAEGTARDLADIAMSKGFAPQVATLDSHAGNLPREGAVLIVTASYNGHPPDNAKQFVDWLDQASADEVKGVRYSVFGCGDKTWAATYQKVPAFIDETLAAKGAENIADRGEADASDDFEGTYEEWRDHMWSDVASYFNLDIENSEDNKSTLSLQFVDSAADMPLAKMHGAFSTNVVASKELQQPGSARSTRHLEIELPKEASYQEGDHLGVIPRNYEGIVNRVTARFGLSASQQIRLEAEEEKLAHLPLAKTVSVEELLQYVELQDPVTRTQLRAMAAKTVCPPHKVELEALLEKQAYKEQVLAKRLTMLELLEKYPACEMKFSEFIALLPSIRPRYYSISSSPRVDEKQASITVSVVSGEAWSGYGEYKGIASNYLAELQEGDTITCFISTPQSEFTLPKDPETPLIMVGPGTGVAPFRGFVQARKQLKEQGQSLGEAHLYFGCRSPHEDYLYQEELENAQSEGIITLHTAFSRMPNQPKTYVQHVMEQDGKKLIELLDQGAHFYICGDGSQMAPAVEATLMKSYADVHQVSEADARLWLQQLEEKGRYAKDVWAG | ++++ (15.01-20.00) | ‡‡‡ (5001-10000) | + (0-5.00) | ‡‡ (1001-5000) | ++++ (15.01-20.00) | ‡‡‡‡ (10000-50000) | + (0-5.00) | ‡‡ (1001-5000) | *** (5.01-10.0) | * (0.0-3.0) | *** (5.01-10.0) | **** (10.01-15.00)
SEQ ID NO: 14: P450-BM3 parental backbone from the commercially available MCYP panel (MCYP-0343; Codexis) (protein, P450_BM3) MTIKEMPQPKTFGELKNLPLLNTDKPVQALMKIADELGEIFKFEAPGLVTRYLSSQRLIKEACDESRFDKNLSQALKFARDFAGDGLFTSWTHEKNWKKAHNILLPSFSQQAMKGYHAMMVDIAVQLVQKWERLNADEHIEVPEDMTRLTLDTIGLCGFNYRFNSFYRDQPHPFITSMVRALDEAMNKQQRANPDDPAYDENKRQFQEDIKVMNDLVDKIIADRKASGEQSDDLLTHMLNGKDPETGEPLDDENIRYQIITFLIAGHETTSGLLSFALYFLVKNPHVLQKAAEEAARVLVDPVPSYKQVKQLKYVGMVLNEALRLWPTAPAFSLYAKEDTVLGGEYPLEKGDELMVLIPQLHRDKTIWGDDVEEFRPERFENPSAIPQHAFKPFGNGQRACIGQQFALHEATLVLGMMLKHFDFEDHTNYELDIKETLTLKPEGFVVKAKSKKIPLGGIPSPSTEQSAKKVRKKAENAHNTPLLVLYGSNMGTAEGTARDLADIAMSKGFAPQVATLDSHAGNLPREGAVLIVTASYNGHPPDNAKQFVDWLDQASADEVKGVRYSVFGCGDKNWATTYQKVPAFIDETLAAKGAENIADRGEADASDDFEGTYEEWREHMWSDVAAYFNLDIENSEDNKSTLSLQFVDSAADMPLAKMHGAFSTNVVASKELQQPGSARSTRHLEIELPKEASYQEGDHLGVIPRNYEGIVNRVTARFGLDASQQIRLEAEEEKLAHLPLAKTVSVEELLQYVELQDPVTRTQLRAMAAKTVCPPHKVELEALLEKQAYKEQVLAKRLTMLELLEKYPACEMKFSEFIALLPSIRPRYYSISSSPRVDEKQASITVSVVSGEAWSGYGEYKGIASNYLAELQEGDTITCFISTPQSEFTLPKDPETPLIMVGPGTGVAPFRGFVQARKQLKEQGQSLGEAHLYFGCRSPHEDYLYQEELENAQSEGIITLHTAFSRMPNQPKTYVQHVMEQDGKKLIELLDQGAHFYICGDGSQMAPAVEATLMKSYADVHQVSEADARLWLQQLEEKGRYAKDVWAG | + (0-5.00) | ‡ (0-1000) | + (0-5.00) | ‡‡ (1001-5000) | + (0-5.00) | ‡‡ (1001-5000) | + (0-5.00) | ‡ (0-1000) |  |  |  | 
